Experimental data reported in patent US20230257479A1 (Genmab, published 2023).

What was measured:
[1] = target: T1, full length human 5T4 (SEQ ID NO: 1) on cells (human, UniProt Q13641 32-420); experiment: flow cytometry, HeLa cells, PE secondary [II)B]
T1 construct: Uniprot Q13641; residues 1-31 are the signal peptide; Used both for transfected HEK-293 cells and for 5T4-expressing human tumor cell lines
T1 sequence: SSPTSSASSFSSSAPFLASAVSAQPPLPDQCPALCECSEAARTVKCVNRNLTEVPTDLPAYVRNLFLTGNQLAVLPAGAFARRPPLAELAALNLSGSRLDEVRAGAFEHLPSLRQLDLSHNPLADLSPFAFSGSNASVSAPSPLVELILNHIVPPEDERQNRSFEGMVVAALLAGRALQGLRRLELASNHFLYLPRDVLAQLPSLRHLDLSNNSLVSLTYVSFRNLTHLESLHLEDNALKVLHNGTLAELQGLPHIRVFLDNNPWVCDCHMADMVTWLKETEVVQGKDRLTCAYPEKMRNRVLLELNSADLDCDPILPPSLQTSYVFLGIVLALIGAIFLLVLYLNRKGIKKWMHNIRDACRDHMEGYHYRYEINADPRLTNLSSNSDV

[2] = target: T1, full length human 5T4 (SEQ ID NO: 1) on …; experiment: flow cytometry, HeLa cells, FITC secondary [I)C]
[3] = target: T1, full length human 5T4 (SEQ ID NO: 1) on …; experiment: flow cytometry, MDA-MB-231 cells, FITC secondary [I)C]
[4] = target: T1, full length human 5T4 (SEQ ID NO: 1) on …; experiment: flow cytometry, MDA-MB-231 cells, PE secondary [III)B]
[5] = target: T1, full length human 5T4 (SEQ ID NO: 1) on …; experiment: flow cytometry, HEK-293 cells transfected with human 5T4, PE secondary [II)B]
[6] = target: T1, full length human 5T4 (SEQ ID NO: 1) on …; experiment: flow cytometry, HEK-293 cells transfected with human 5T4, FITC secondary [I)B]
[7] = target: T2, full length cynomolgus monkey 5T4 on transfected HEK-293 cells (cynomolgus monkey, UniProt Q4R8Y9 35-420); experiment: flow cytometry, HEK-293 cells transfected with cynomolgus monkey 5T4, PE secondary [II)B]
T2 construct: Uniprot Q4R8Y9; residues 1-34 are the signal peptide; also called cynomolgus 5T4
T2 sequence: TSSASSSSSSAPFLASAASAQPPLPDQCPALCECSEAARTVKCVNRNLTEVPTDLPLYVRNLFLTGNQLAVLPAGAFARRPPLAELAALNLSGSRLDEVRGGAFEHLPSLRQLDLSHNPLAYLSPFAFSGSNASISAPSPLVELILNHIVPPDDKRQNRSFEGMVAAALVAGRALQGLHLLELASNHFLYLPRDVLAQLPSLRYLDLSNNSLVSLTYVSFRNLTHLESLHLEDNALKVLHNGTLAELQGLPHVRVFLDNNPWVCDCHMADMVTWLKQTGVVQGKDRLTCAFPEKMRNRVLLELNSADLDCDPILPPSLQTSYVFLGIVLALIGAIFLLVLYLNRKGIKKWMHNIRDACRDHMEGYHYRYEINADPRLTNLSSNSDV

[8] = target: T2, full length cynomolgus monkey 5T4 on …; experiment: flow cytometry, HEK-293 cells transfected with cynomolgus monkey 5T4, FITC secondary [I)B]
[9] = target: T1, full length human 5T4 (SEQ ID NO: 1) on …; experiment: flow cytometry, HeLa cells, PE secondary [II)D]
[10] = target: T1, full length human 5T4 (SEQ ID NO: 1) on …; experiment: flow cytometry, MDA-MB-231 cells, PE secondary [III)D]
[11] = target: T2, full length cynomolgus monkey 5T4 on …; experiment: flow cytometry, HEK-293 cells transfected with cynomolgus monkey 5T4, PE secondary [II)D]
[12] = target: T3, human 5T4ECDHis (mature protein of SEQ ID NO: 99) (human, UniProt Q13641 32-355); experiment: BLI cross-block; competitor (immobilised): IgG1-5T4-H8-FEAR
T3 construct: ECD of human 5T4 (aa 1-355 of Uniprot Q13641) with C-terminal His tag; residues 1-31 are the signal peptide; also called ECD of human 5T4 with a C-terminal His tag
T3 sequence: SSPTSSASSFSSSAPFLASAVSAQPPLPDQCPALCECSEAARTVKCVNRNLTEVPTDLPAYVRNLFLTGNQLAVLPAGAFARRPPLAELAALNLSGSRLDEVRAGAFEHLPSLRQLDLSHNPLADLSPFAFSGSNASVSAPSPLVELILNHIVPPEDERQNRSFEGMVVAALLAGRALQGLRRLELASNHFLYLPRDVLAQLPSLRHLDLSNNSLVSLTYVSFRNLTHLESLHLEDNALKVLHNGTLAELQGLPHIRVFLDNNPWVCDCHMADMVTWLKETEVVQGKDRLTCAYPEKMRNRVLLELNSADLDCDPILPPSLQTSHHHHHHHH

[13] = target: T3, human 5T4ECDHis (mature protein of SEQ …); experiment: BLI cross-block; competitor (immobilised): IgG1-5T4-059-FEAR
[14] = target: T3, human 5T4ECDHis (mature protein of SEQ …); experiment: BLI cross-block; competitor (immobilised): IgG1-5T4-076-FEAR
[15] = target: T3, human 5T4ECDHis (mature protein of SEQ …); experiment: BLI cross-block; competitor (immobilised): IgG1-5T4-085-FEAR
[16] = target: T3, human 5T4ECDHis (mature protein of SEQ …); experiment: BLI cross-block; competitor (immobilised): IgG1-5T4-106-FEAR
[17] = target: T3, human 5T4ECDHis (mature protein of SEQ …); experiment: BLI cross-block; competitor (immobilised): IgG1-5T4-127-FEAR
[18] = target: T3, human 5T4ECDHis (mature protein of SEQ …); experiment: BLI cross-block; competitor (immobilised): IgG1-5T4-207-FEAR
[19] = target: T3, human 5T4ECDHis (mature protein of SEQ …); experiment: BLI cross-block; competitor (immobilised): IgG1-5T4-226-FEAR
[20] = target: T3, human 5T4ECDHis (mature protein of SEQ …); experiment: BLI cross-block; competitor (immobilised): IgG1-5T4-A1-F405L
[21] = target: T3, human 5T4ECDHis (mature protein of SEQ …); experiment: BLI cross-block; competitor (immobilised): IgG1-5T4-A3-F405L
[22] = target: T1, full length human 5T4 (SEQ ID NO: 1) on …; experiment: flow cytometry, MDA-MB-231 cells, PE secondary [III)E]
[23] = target: T2, full length cynomolgus monkey 5T4 on …; experiment: flow cytometry, HEK-293 cells transfected with cynomolgus monkey 5T4, PE secondary [II)F]
[24] = target: T1, full length human 5T4 (SEQ ID NO: 1) on …; experiment: flow cytometry, HeLa cells, PE secondary [II)G]
[25] = target: T2, full length cynomolgus monkey 5T4 on …; experiment: flow cytometry, HEK-293 cells transfected with cynomolgus monkey 5T4, PE secondary [II)H]

B1: bsIgG1-huCD3-H101G-FEALx5T4-226-FEAR (bispecific antibody)
heavy: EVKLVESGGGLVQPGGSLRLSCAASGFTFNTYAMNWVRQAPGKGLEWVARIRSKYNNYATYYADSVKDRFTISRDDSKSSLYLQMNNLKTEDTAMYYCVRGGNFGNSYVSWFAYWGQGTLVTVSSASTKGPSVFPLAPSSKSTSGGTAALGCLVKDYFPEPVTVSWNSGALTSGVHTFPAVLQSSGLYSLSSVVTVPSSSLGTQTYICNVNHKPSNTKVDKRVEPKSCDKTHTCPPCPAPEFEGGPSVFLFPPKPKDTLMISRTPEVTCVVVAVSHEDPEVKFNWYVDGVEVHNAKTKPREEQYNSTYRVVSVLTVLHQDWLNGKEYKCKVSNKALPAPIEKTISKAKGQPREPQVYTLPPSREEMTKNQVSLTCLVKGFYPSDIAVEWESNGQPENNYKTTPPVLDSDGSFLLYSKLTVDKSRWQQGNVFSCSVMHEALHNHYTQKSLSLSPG
light: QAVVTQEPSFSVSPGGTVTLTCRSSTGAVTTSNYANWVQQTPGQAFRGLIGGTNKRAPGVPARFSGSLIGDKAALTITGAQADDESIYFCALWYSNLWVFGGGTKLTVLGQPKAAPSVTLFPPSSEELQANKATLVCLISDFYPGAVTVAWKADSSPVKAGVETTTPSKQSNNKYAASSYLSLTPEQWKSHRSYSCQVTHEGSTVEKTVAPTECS
VH: QVQLQQWGAGLLKPSETLSLTCAVYGGSFSGYYWSWIRQPPGKGLEWIGEIDHSGSTNYNPSLKSRVTISVDTSKNQFSLKLSSVTAADTAVYYCAAWFGELWDYYYGMDVWGQGTTVTVSS
VL: EIVLTQSPATLSLSPGERATLSCRASQSVSSFLAWYQQKPGQAPRLLIYDASNRATGIPARFSGSGSGTDFTLTISSLEPEDFAVYYCQQRSNWPLTFGQGTRLEIK
notes: Fab-arm exchange product
With B1 the “EC50 (read off the curve)” value [1] was about 0.04 µg/mL, the “EC50 (read off the curve)” value [2] was about 0.02 µg/mL and the “EC50 (read off the curve)” value [3] was about 0.1 µg/mL. For the same binder, the “EC50 (read off the curve)” value [4] was about 0.04 µg/mL, the “EC50 (read off the curve)” value [5] was about 0.1 µg/mL and the “EC50 (read off the curve)” value [6] was about 0.2 µg/mL. The “EC50 (read off the curve)” value [7] was about 0.06 µg/mL and the “EC50 (read off the curve)” value [8] was about 0.1 µg/mL.

B2: bsIgG1-huCD3-H101G-FEALx5T4-106-FEAR (bispecific antibody)
heavy: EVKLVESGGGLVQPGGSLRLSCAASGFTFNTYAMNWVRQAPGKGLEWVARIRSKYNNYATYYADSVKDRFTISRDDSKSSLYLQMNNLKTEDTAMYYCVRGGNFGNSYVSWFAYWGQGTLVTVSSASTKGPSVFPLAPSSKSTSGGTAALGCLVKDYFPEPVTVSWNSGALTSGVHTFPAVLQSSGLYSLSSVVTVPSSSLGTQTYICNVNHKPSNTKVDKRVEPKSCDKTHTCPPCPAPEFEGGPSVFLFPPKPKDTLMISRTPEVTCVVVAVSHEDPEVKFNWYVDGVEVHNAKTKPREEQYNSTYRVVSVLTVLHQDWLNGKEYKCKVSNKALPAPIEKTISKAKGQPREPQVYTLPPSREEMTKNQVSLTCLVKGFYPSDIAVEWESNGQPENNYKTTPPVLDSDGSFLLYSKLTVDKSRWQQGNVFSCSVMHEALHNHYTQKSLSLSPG
light: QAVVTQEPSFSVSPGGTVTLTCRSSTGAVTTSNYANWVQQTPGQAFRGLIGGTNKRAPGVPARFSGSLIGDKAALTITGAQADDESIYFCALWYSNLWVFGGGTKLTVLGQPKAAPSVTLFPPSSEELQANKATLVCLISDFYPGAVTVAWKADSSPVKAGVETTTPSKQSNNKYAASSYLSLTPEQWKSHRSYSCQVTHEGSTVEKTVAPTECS
VH: EVQLVQSGAEVKKPGESLKISCKGSGYRFTSYWIGWVRQMPGKGLEWMGIIYPGDSDARYSPSFQGQVTISADKSISTAYLQWSSLKASDTGMYYCARSVLFDYWGQGTLVTVSS
VL: AIQLTQSPSSLSASVGDRVTITCRASQGISSALAWYQQKPGKAPKLLIYDVSNLESGVPSRFSGSGSGTDFTLTISSLQPEDFATYYCQQFNSYPHTFGQGTKLEIK
notes: Fab-arm exchange product
In the case of B2, the “EC50 (read off the curve)” value [9] is reported as about 0.1 µg/mL, the “EC50 (read off the curve)” value [10] is reported as about 0.1 µg/mL and the binding result [11] is reported as “binds”.

B3: IgG1-5T4-085-FEAR (antibody, V domains shown)
VH: EVQLLESGGGLVQPGGSLRLSCAASGFTFSSYAMSWVRQAPGKGLEWVSAISGSGGSTYNADSVKGRFTIFRDNSKNTLYLHMNSLRAEDTAVYYCARDPGYNNVEYLDHWGQGTLVTVSS
VL: AIQLTQSPSSLSASVGDRVTITCRASQGISSALAWYQQKPGKAPKLLIYDASSLESGVPSRFSGSGSGTDFTLTISSLQPEDFATYYCQQFNSYPLTFGGGTKVEIK
notes: Monospecific, bivalent human IgG1 kappa with L234F, L235E, D265A, K409R (FEAR)
Binder B3 has a corrected association response [12] of -0.02 nm, a corrected association response [13] of -0.02 nm and a corrected association response [14] of -0.02 nm. For the same binder, the corrected association response [15] was -0.01 nm, the corrected association response [16] was -0.04 nm and the corrected association response [17] was -0.01 nm. For the same binder, the corrected association response [18] was 1.03 nm, the corrected association response [19] was 1.35 nm and the corrected association response [20] was 0.72 nm. The corrected association response [21] was 0 nm, the “EC50 (read off the curve)” value [22] was about 0.04 µg/mL and the “EC50 (read off the curve)” value [23] was about 0.008 µg/mL.

B4: bsIgG1-huCD3-H101G-FEALx5T4-A1-FEAR (bispecific antibody)
heavy: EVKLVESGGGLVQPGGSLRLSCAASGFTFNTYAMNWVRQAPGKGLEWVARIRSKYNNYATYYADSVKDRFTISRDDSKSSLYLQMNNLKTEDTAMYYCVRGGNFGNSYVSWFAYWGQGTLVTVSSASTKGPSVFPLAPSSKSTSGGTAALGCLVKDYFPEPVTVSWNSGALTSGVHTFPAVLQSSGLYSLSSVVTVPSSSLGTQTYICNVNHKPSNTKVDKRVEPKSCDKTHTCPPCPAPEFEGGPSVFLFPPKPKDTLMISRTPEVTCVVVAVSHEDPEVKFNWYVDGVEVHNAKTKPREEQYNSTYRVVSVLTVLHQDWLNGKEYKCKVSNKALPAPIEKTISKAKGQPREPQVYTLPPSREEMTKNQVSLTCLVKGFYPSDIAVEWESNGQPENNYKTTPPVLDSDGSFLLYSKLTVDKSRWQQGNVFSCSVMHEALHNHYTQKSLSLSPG
light: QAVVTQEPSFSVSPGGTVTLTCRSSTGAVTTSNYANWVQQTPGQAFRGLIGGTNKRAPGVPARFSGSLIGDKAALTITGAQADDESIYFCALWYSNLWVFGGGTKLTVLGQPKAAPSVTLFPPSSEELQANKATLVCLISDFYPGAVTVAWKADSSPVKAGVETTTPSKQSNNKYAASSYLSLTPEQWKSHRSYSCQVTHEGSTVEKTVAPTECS
VH: QIQLVQSGPELKKPGETVKISCKASGYTFTNFGMNWVKQGPGEGLKWMGWINTNTGEPRYAEEFKGRFAFSLETTASTAYLQINNLKNEDTATYFCARDWDGAYFFDYWGQGTTLTVSS
VL: SIVMTQTPKFLLVSAGDRVTITCKASQSVSNDVAWYQQKPGQSPKLLINFATNRYTGVPNRFTGSGYGTDFTFTISTVQAEDLALYFCQQDYSSPWTFGGGTKLEIK
notes: Fab-arm exchange product
B4: binds [24]; binds [25].

B5: IgG1-5T4-A1-FEAR (antibody, V domains shown)
VH: QIQLVQSGPELKKPGETVKISCKASGYTFTNFGMNWVKQGPGEGLKWMGWINTNTGEPRYAEEFKGRFAFSLETTASTAYLQINNLKNEDTATYFCARDWDGAYFFDYWGQGTTLTVSS
VL: SIVMTQTPKFLLVSAGDRVTITCKASQSVSNDVAWYQQKPGQSPKLLINFATNRYTGVPNRFTGSGYGTDFTFTISTVQAEDLALYFCQQDYSSPWTFGGGTKLEIK
notes: Based on A1 from Wyeth; IgG1 with L234F, L235E, D265A, K409R (FEAR)
For B5, the binding result [24] was “binds” and the “EC50 (read off the curve)” value [25] was about 0.1 µg/mL.
